This passage reports normalised SPOT signal, Boehringer light units (BLU); mean over the file's lines of this peptide results from article PMC314469, “Protein Interaction Networks by Proteome Peptide Scanning” (PLoS Biology, 2004).

For assay [1], the target named is T1, amphyphisin SH3 (AMPH_HUMAN), P49418.
T1 chain: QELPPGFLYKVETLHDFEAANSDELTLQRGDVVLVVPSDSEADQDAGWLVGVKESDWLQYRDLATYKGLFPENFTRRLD
The experiment in a line: SPOT array.

Assay [2] concerns the target endophilin SH3 (SH3G2_HUMAN), Q99962. The experiment in a line: SPOT array.

As for QEALPMRPAREGEL [Q9Y6J9 86-99], the normalised SPOT signal, Boehringer light units (BLU); mean over the file's lines of this peptide in assay [1] amounted to 2910; in assay [2], 70.9.
In the same order, the values of PWRGFSRPSRFFSS [Q14968 167-180] are 3040 and 218.
On the same counts, the results for QGGRPHRPPQGQPP [Q04118 294-308] are 37.1 and 51.3.
On the same counts, the results for QAAFPRRPPPRGTR [Q9Y5N2 203-217] are 6180 and 6430.
Take QELLPGKPPKSRVL [Q8TC00 766-780]: the normalised SPOT signal, Boehringer light units (BLU); mean over the file's lines of this peptide stood at 49.9 in assay [1] and 156 in assay [2].
As for QAGGPQRPGRVVSL [Q13671 45-58], the normalised SPOT signal, Boehringer light units (BLU); mean over the file's lines of this peptide in assay [1] amounted to 4280; in assay [2], 556.
For the molecule QAATPRRPAAISRP [Q96E55 116-129], the normalised SPOT signal, Boehringer light units (BLU); mean over the file's lines of this peptide in assay [1] was determined as 178; in assay [2], 1370.
For PVVPPRRPPPPKKT [Q9P2Q1 393-407], the normalised SPOT signal, Boehringer light units (BLU); mean over the file's lines of this peptide in assay [1] was 7830; in assay [2] it was 16000.
In the same order, the values of QGPAPRRPWERGDG [P16066 284-297] are 35.7 and 0.
On the same counts, the results for QAVFPFKPPQRIEA [Q9Y6X3 59-73] are 80.1 and 62.6.
On to QGAGPSRPPTPGRN [O95398 328-342], for which the normalised SPOT signal, Boehringer light units (BLU); mean over the file's lines of this peptide in assay [1] came to 1010; in assay [2] it was 2220.
On the same counts, the results for PYPLILRPQRGVDL [P47712 557-570] are 351 and 282.
For QSDSIRRPLRPGQY [O75878 30-43], the results for the normalised SPOT signal, Boehringer light units (BLU); mean over the file's lines of this peptide in assay [1] and in assay [2] were 844 and 378, respectively.
Take QAVLPPRPPKVLEF [Q9NWT4 356-370]: the values for the normalised SPOT signal, Boehringer light units (BLU); mean over the file's lines of this peptide in assay [1] and in assay [2] were 346 and 1570, respectively.
On the same counts, the results for PVLDLRRPPSDLYL [Q9Y618 2172-2185] are 35.4 and 63.7.
For the molecule ASSSPKRPSVERSN [O75764 109-122], the results for the normalised SPOT signal, Boehringer light units (BLU); mean over the file's lines of this peptide in assay [1] and in assay [2] were 12.2 and 190, respectively.
In the same order, the values of QDSPPPKPPRTRSS [Q05209 329-343] are 20600 and 2900.
On the same counts, the results for PVVLPWRPARAHSS [Q9Y2H3 1375-1388] are 8510 and 2120.
As for QALYFSRPFREKVL [O75317 40-53], the normalised SPOT signal, Boehringer light units (BLU); mean over the file's lines of this peptide in assay [1] stood at 1060; in assay [2] it was 226.
On the same counts, the results for QAVHLPRPPRVLGL [Q9H960 30-43] are 1920 and 178.
On the same counts, the results for QHYTLGRPGRAPRR [O60275 1399-1412] are 565 and 73.
On the same counts, the results for QDLRPLRPPAQTPQ [O00456 524-538] are 266 and 154.
For QAGFPRRPPPRGTR [Q9UER3 87-101], the values for the normalised SPOT signal, Boehringer light units (BLU); mean over the file's lines of this peptide in assay [1] and in assay [2] were 6450 and 7340, respectively.
With QGSAPLRPFRSGEG [Q9H6J3 73-86], the normalised SPOT signal, Boehringer light units (BLU); mean over the file's lines of this peptide in assay [1] worked out at 7120; in assay [2] it was 1840.
On the same counts, the results for QDAYLSRPGRALAH [Q9UIW2 291-304] are 165 and 219.
For ASSRPGRPPKRSLG [BAC03761 161-175], the figures for the normalised SPOT signal, Boehringer light units (BLU); mean over the file's lines of this peptide in assay [1] and in assay [2] were 6850 and 20200, respectively.
In the same order, the values of QFPKLDRPTKQMRE [P78524 721-734] are 116 and 133.
On the same counts, the results for QEDSPRKPPNFPVP [Q8TEE1 827-841] are 97.6 and 142.
On the same counts, the results for QILSPPRPPTSPSF [Q9BRZ8 226-240] are 75.8 and 4830.
Turning to QGPAPRRPTTDQIS [O43566 535-548], the normalised SPOT signal, Boehringer light units (BLU); mean over the file's lines of this peptide was determined as 36.6 in assay [1] and 6570 in assay [2].
In the same order, the values of QGASIRRPSSGNAS [Q13267 138-151] are 33.6 and 124.
In the same order, the values of QAQLPPKPPAWAWA [P54098 158-172] are 38.5 and 119.
In the same order, the values of PWQRPKRPGHGHGW [Q03252 424-437] are 43 and 204.
Take QGIEFLRPLKTTTP [P42357 562-575]: the normalised SPOT signal, Boehringer light units (BLU); mean over the file's lines of this peptide came to 31.9 in assay [1] and 83.1 in assay [2].
On the same counts, the results for QASRFQRPGRRMSE [Q9BZ71 507-520] are 4120 and 445.
On the same counts, the results for ASSRPGRPPKRTQS [Q9UI36 281-295] are 950 and 5690.
For QALYFSRPFRENVL [Q9H9T8 51-64], the normalised SPOT signal, Boehringer light units (BLU); mean over the file's lines of this peptide in assay [1] turned out to be 2250; in assay [2] it was 224.
For the molecule QAGPPSRPPRYSSS [AAH32298 59-73], the results for the normalised SPOT signal, Boehringer light units (BLU); mean over the file's lines of this peptide in assay [1] and in assay [2] were 13600 and 7540, respectively.
